# Test results from paper PMC9603599, “NAC1 Maintains Root Meristem Activity by Repressing the Transcription of E2Fa in Arabidopsis”.
# T1: GST-NAC1(1-199) (Arabidopsis thaliana, UniProt Q84TE6 1-199)
# T1 sequence: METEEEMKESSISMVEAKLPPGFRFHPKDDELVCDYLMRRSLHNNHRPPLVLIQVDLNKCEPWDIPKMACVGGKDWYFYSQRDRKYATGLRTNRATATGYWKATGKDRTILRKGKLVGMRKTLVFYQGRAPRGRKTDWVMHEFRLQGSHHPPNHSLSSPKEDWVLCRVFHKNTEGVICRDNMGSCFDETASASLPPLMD
# Molecular target: T1, GST-NAC1(1-199)
# Test: EMSA; LightShift Chemiluminescent EMSA kit (Thermo 20148), manufacturer's instructions; buffer, salt, pH and temperature not stated
# Details: protein: recombinant, tags: GST (N-terminal, pGEX-4T-1), chain copies: 2, label: biotin
Binder,"binding result (printed strands differ by one nt: F1 has CCCGTT where R1 complement gives CCGTT (1-nt bulge or typo), P1 = F1/R1 by number)","binding result (blunt, P2 = F2/R2 by number)"
E2Fa promoter probe P1 (E2Fa-BIO-F1/R1) (dsDNA) DNA 1: CGTGAAATGCCAGTGGTCTATGATCGGATTCTCTGTTTCCCGTTCTCCTTCTTTTTTTGGGCCTTAAATCCGTTT DNA 2: AAACGGATTTAAGGCCCAAAAAAAGAAGGAGAACGGAAACAGAGAATCCGATCATAGACCACTGGCATTTCACG,binds,
E2Fa promoter probe P2 (E2Fa-BIO-F2/R2) (dsDNA) DNA 1: CGTGTAGAGTTGCGATTTGCAGAGAATTGTGATTCTACAATTGGAGGCAAGATGATGAATGTGTGAACTGATTAGCGTAA DNA 2: TTACGCTAATCAGTTCACACATTCATCATCTTGCCTCCAATTGTAGAATCACAATTCTCTGCAAATCGCAACTCTACACG,,binds
